Results published in paper PMC8012715, “Mechanism of NanR gene repression and allosteric induction of bacterial sialic acid metabolism” (Nature Communications, 2021).

What was measured:
[1] = molecular target: T1, NanR (Escherichia coli K12) (UniProt P0A8W0); experiment: EMSA; conditions: 10 nM DNA, EMSA: 10 mM MOPS pH 7.5, 50 mM KCl, 5 mM MgCl2, 10% glycerol, 30 min at room temperature, gel at 4 C, fluorescence AUC: 20 mM Tris-HCl pH 8.0, 150 mM NaCl …
T1 sequence: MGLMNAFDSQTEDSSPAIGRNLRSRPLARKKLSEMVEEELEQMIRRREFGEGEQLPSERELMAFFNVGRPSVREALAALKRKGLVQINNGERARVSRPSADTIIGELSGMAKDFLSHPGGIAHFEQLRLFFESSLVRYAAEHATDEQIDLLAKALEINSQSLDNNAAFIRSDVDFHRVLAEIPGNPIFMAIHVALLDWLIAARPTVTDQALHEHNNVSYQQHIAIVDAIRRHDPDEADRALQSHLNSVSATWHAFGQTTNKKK

[2] = molecular target: T1, NanR (Escherichia coli K12); experiment: fluorescence-detected AUC; conditions: 80 nM DNA, EMSA: 10 mM MOPS pH 7.5, 50 mM KCl, 5 mM MgCl2, 10% glycerol, 30 min at room temperature, gel at 4 C, fluorescence AUC: 20 mM Tris-HCl pH 8.0, 150 mM NaCl …

(GGTATA)2-repeat, FAM
Kd ([1]; Hill n = 2.8 ± 0.3, two complexes): 25 nM

(GGTATA)3-repeat operator, FAM
Kd ([1]; Hill n = 2.0 ± 0.2, apparent KD): 39 nM
Kd ([2]; 20 mM Neu5Ac, Hill n = 2.0 ± 0.6): 578 nM
Kd ([2]; Hill n = 1.9 ± 0.2, no Neu5Ac): 20 nM
